The record followed here is PMC4627417.

Some targets named below: RPRD2 (UniProt Q5VT52); SCAF4 (UniProt O95104); SCAF8 (UniProt Q9UPN6); RPRD1B (UniProt Q9NQG5).
Holding throughout (assay): biotin-peptide pull-down, MUDPIT mass spectrometry
Setting [1] is: reference: unphosphorylated CTD peptide, sites S2.
[2] abbreviates: reference: unphosphorylated CTD peptide, sites S5.
The mark [3] stands for this setting: reference: unphosphorylated CTD peptide, sites Y1.
The mark [4] stands for this setting: reference: pS2-CTD peptide, sites Y1.

With “RNA polymerase II largest subunit (Rpb1) C-terminal repeated domain (CTD) (from UniProt P24928) pS2-CTD peptide”, the “other: number of peptides identified” value with RPRD2 (setting [1]), with SCAF4 (setting [1]), with SCAF8 (setting [1]) and in the assay with RPRD1B (setting [1]) was “gained; reference 0” throughout.

With “RNA polymerase II largest subunit (Rpb1) C-terminal repeated domain (CTD) (from UniProt P24928) pS5-CTD peptide”, the “other: number of peptides identified” value with RPRD2 (setting [2]), with SCAF4 (setting [2]), with SCAF8 (setting [2]) and with RPRD1B (setting [2]) was “none in both; reference 0” in each case.

As to “RNA polymerase II largest subunit (Rpb1) C-terminal repeated domain (CTD) (from UniProt P24928) pY1-CTD peptide”, the “other: number of peptides identified” value with RPRD2 (setting [3]), with SCAF4 (setting [3]), in the assay with SCAF8 (setting [3]) and with RPRD1B (setting [3]) was “none in both; reference 0” throughout.

With “RNA polymerase II largest subunit (Rpb1) C-terminal repeated domain (CTD) (from UniProt P24928) pY1pS2-CTD peptide”, the “other: number of peptides identified” value in the assay with RPRD2 (setting [4]) was “weaker; reference 63”; with SCAF4 (setting [4]), “weaker; reference 12”; with SCAF8 (setting [4]), “lost; reference 17”; in the assay with RPRD1B (setting [4]), “weaker; reference 40”.
